The values that follow come from the supplement of paper PMC5998384.

In data set [1] the test system is HeLa Kyoto. Kind of data set: solubility change mitosis vs G1/S (difference of NP-40 vs SDS log2 ratios) (log2 ratio difference); higher = more soluble in mitosis.
Data set [2] concerns HeLa Kyoto. Briefly: solubility in G1/S (NP-40 vs SDS abundance) (log2 ratio); higher = more soluble. The conditions noted are these: cell cycle stage: G1/S.
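Throughout, for solubility change mitosis vs G1/S (difference of NP-40 vs SDS log2 ratios): synchronized HeLa Kyoto cells (double thymidine block for G1/S, nocodazole release for mitosis), protein amounts in NP-40 versus SDS lysates quantified by mass spectrometry, three biological replicates.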
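Throughout, for solubility in G1/S (NP-40 vs SDS abundance): HeLa Kyoto cells arrested at G1/S by double thymidine block, proteins quantified by TMT10plex mass spectrometry in mild NP-40 versus SDS extracts, three biological replicates.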

Turning to “MVAMAEAEAGVAVEVRGLPPAVPDELLTLYFENRRRSGGGPVLSWQRLGCGGVLTFREPADAERVLAQADHELHGAQLSLRPAPPRAPARLLLQGLPPGTTPQRLEQHVQALLRASGLPVQPCCALASPRPDRALVQLPKPLSEADVRVLEEQAQNLGLEGTLVSLARVPQARAVRVVGDGASVDLLLLELYLENERRSGGGPLEDLQRLPGPLGTVASFQQWQVAERVLQQEHRLQGSELSLVPHYDILEPEELAENTSGGDHPSTQGPRATKHALLRTGGLVTALQGAGTVTMGSGEEPGQSGASLRTGPMVQGRGIMTTGSGQEPGQSGTSLRTGPMGSLGQAEQVSSMPMGSLEHEGLVSLRPVGLQEQEGPMSLGPVGSAGPVETSKGLLGQEGLVEIAMDSPEQEGLVGPMEITMGSLEKAGPVSPGCVKLAGQEGLVEMVLLMEPGAMRFLQLYHEDLLAGLGDVALLPLEGPDMTGFRLCGAQASCQAAEEFLRSLLGSISCHVLCLEHPGSARFLLGPEGQHLLQGLEAQFQCVFGTERLATATLDTGLEEVDPTEALPVLPGNAHTLWTPDSTGGDQEDVSLEEVRELLATLEGLDLDGEDWLPRELEEEGPQEQPEEEVTPGHEEEEPVAPSTVAPRWLEEEAALQLALHRSLEPQGQVAEQEEAAALRQALTLSLLEQPPLEAEEPPDGGTDGKAQLVVHSAFEQDVEELDRALRAALEVHVQEETVGPWRRTLPAELRARLERCHGVSVALRGDCTILRGFGAHPARAARHLVALLAGPWDQSLAFPLAASGPTLAGQTLKGPWNNLERLAENTGEFQEVVRAFYDTLDAARSSIRVVRVERVSHPLLQQQYELYRERLLQRCERRPVEQVLYHGTTAPAVPDICAHGFNRSFCGRNATVYGKGVYFARRASLSVQDRYSPPNADGHKAVFVARVLTGDYGQGRRGLRAPPLRGPGHVLLRYDSAVDCICQPSIFVIFHDTQALPTHLITCEHVPRASPDDPSGLPGRSPDT [PARP10]”, in data set [1], the “solubility change mitosis (log2)” value turned out to be 0.0134. Moreover, the “solubility in G1/S (log2)” value in data set [2] was 0.14.

On to “MVARRRKCAARDPEDRIPSPLGYAAIPIKFSEKQQASHYLYVRAHGVRQGTKSTWPQKRTLFVLNVPPYCTEESLSRLLSTCGLVQSVELQEKPDLAESPKESRSKFFHPKPVPGFQVAYVVFQKPSGVSAALALKGPLLVSTESHPVKSGIHKWISDYADSVPDPEALRVEVDTFMEAYDQKIAEEEAKAKEEEGVPDEEGWVKVTRRGRRPVLPRTEAASLRVLERERRKRSRKELLNFYAWQHRESKMEHLAQLRKKFEEDKQRIELLRAQRKFRPY [RRP7A]”, for which the “solubility change mitosis (log2)” value in data set [1] amounted to 1.02. Besides, the “solubility in G1/S (log2)” value in data set [2] was -1.58.

Consider “MVGRSRRRGAAKWAAVRAKAGPTLTDENGDDLGLPPSPGDTSYYQDQVDDFHEARSRAALAKGWNEVQSGDEEDGEEEEEEVLALDMDDEDDEDGGNAGEEEEEENADDDGGSSVQSEAEASVDPSLSWGQRKKLYYDTDYGSKSRGRQSQQEAEEEEREEEEEAQIIQRRLAQALQEDDFGVAWVEAFAKPVPQVDEAETRVVKDLAKVSVKEKLKMLRKESPELLELIEDLKVKLTEVKDELEPLLELVEQGIIPPGKGSQYLRTKYNLYLNYCSNISFYLILKARRVPAHGHPVIERLVTYRNLINKLSVVDQKLSSEIRHLLTLKDDAVKKELIPKAKSTKPKPKSVSKTSAAACAVTDLSDDSDFDEKAKLKYYKEIEDRQKLKRKKEENSTEEQALEDQNAKRAITYQIAKNRGLTPRRKKIDRNPRVKHREKFRRAKIRRRGQVREVRKEEQRYSGELSGIRAGVKKSIKLK [UTP3]”, for which the “solubility change mitosis (log2)” value in data set [1] was 1.04. In data set [2], the “solubility in G1/S (log2)” value is -1.76.

Take “MVHAFLIHTLRAPNTEDTGLCRVLYSCVFGAEKSPDDPRPHGAERDRLLRKEQILAVARQVESMCRLQQQASGRPPMDLQPQSSDEQVPLHEAPRGAFRLAAENPFQEPRTVVWLGVLSLGFALVLDAHENLLLAEGTLRLLTRLLLDHLRLLAPSTSLLLRADRIEGILTRFLPHGQLLFLNDQFVQGLEKEFSAAWPR [AP5S1]”: in data set [1], the “solubility change mitosis (log2)” value was -0.153. Moreover, the “solubility in G1/S (log2)” value in data set [2] is -0.269.

As to “MVKLFIGNLPREATEQEIRSLFEQYGKVLECDIIKNYGFVHIEDKTAAEDAIRNLHHYKLHGVNINVEASKNKSKASTKLHVGNISPTCTNQELRAKFEEYGPVIECDIVKDYAFVHMERAEDAVEAIRGLDNTEFQGKRMHVQLSTSRLRTAPGMGDQSGCYRCGKEGHWSKECPVDRTGRVADFTEQYNEQYGAVRTPYTMGYGESMYYNDAYGALDYYKRYRVRSYEAVAAAAAASAYNYAEQTMSHLPQVQSTTVTSHLNSTSVDPYDRHLLPNSGAAATSAAMAAAAATTSSYYGRDRSPLRRAAAMLPTVGEGYGYGPESELSQASAATRNSLYDMARYEREQYVDRARYSAF [RBM4B]”, the “solubility change mitosis (log2)” value in data set [1] is -0.335. Also, in data set [2], the “solubility in G1/S (log2)” value came to 0.227.

On to “MVLKAFFPTCCVSTDSGLLVGRWVPEQSSAVVLAVLHFPFIPIQVKQLLAQVRQASQVGVAVLGTWCHCRQEPEESLGRFLESLGAVFPHEPWLRLCRERGGTFWSCEATHRQAPTAPGAPGEDQVMLIFYDQRQVLLSQLHLPTVLPDRQAGATTASTGGLAAVFDTVARSEVLFRSDRFDEGPVRLSHWQSEGVEASILAELARRASGPICLLLASLLSLVSAVSACRVFKLWPLSFLGSKLSTCEQLRHRLEHLTLIFSTRKAENPAQLMRKANTVASVLLDVALGLMLLSWLHGRSRIGHLADALVPVADHVAEELQHLLQWLMGAPAGLKMNRALDQVLGRFFLYHIHLWISYIHLMSPFVEHILWHVGLSACLGLTVALSLLSDIIALLTFHIYCFYVYGARLYCLKIHGLSSLWRLFRGKKWNVLRQRVDSCSYDLDQLFIGTLLFTILLFLLPTTALYYLVFTLLRLLVVAVQGLIHLLVDLINSLPLYSLGLRLCRPYRLADKPTALQPRGAHLPPPQLWLPPQALLGRPVPQAVPWGAHLPLEAERGQAGLRELLARLAPPHGHSQPSALPGWHQLSWRMSCALWTLLCAPEHGRPCYHTLGLEVIGSEQMWGWPARLAALHHWHCLPWDPLPTCCGHHGGEHSNPRCPEHCPMPTLCTQVQRVRPPQQPQVEGWSPWGLPSGSALAVGVEGPCQDEPPSPRHPLAPSAEQHPASGGLKQSLTPVPSGPGPSLPEPHGVYLRMFPGEVAL [PIGQ]”, for which the “solubility change mitosis (log2)” value in data set [1] is -0.119. Besides, in data set [2], the “solubility in G1/S (log2)” value was -0.0206.

Turning to “MVMADGPRHLQRGPVRVGFYDIEGTLGKGNFAVVKLGRHRITKTEVAIKIIDKSQLDAVNLEKIYREVQIMKMLDHPHIIKLYQVMETKSMLYLVTEYAKNGEIFDYLANHGRLNESEARRKFWQILSAVDYCHGRKIVHRDLKAENLLLDNNMNIKIADFGFGNFFKSGELLATWCGSPPYAAPEVFEGQQYEGPQLDIWSMGVVLYVLVCGALPFDGPTLPILRQRVLEGRFRIPYFMSEDCEHLIRRMLVLDPSKRLTIAQIKEHKWMLIEVPVQRPVLYPQEQENEPSIGEFNEQVLRLMHSLGIDQQKTIESLQNKSYNHFAAIYFLLVERLKSHRSSFPVEQRLDGRQRRPSTIAEQTVAKAQTVGLPVTMHSPNMRLLRSALLPQASNVEAFSFPASGCQAEAAFMEEECVDTPKVNGCLLDPVPPVLVRKGCQSLPSNMMETSIDEGLETEGEAEEDPAHAFEAFQSTRSGQRRHTLSEVTNQLVVMPGAGKIFSMNDSPSLDSVDSEYDMGSVQRDLNFLEDNPSLKDIMLANQPSPRMTSPFISLRPTNPAMQALSSQKREVHNRSPVSFREGRRASDTSLTQGIVAFRQHLQNLARTKGILELNKVQLLYEQIGPEADPNLAPAAPQLQDLASSCPQEEVSQQQESVSTLPASVHPQLSPRQSLETQYLQHRLQKPSLLSKAQNTCQLYCKEPPRSLEQQLQEHRLQQKRLFLQKQSQLQAYFNQMQIAESSYPQPSQQLPLPRQETPPPSQQAPPFSLTQPLSPVLEPSSEQMQYSPFLSQYQEMQLQPLPSTSGPRAAPPLPTQLQQQQPPPPPPPPPPRQPGAAPAPLQFSYQTCELPSAASPAPDYPTPCQYPVDGAQQSDLTGPDCPRSPGLQEAPSSYDPLALSELPGLFDCEMLDAVDPQHNGYVLVN [SIK2]”, in data set [1], the “solubility change mitosis (log2)” value was -0.0513. For the same sequence, the “solubility in G1/S (log2)” value in data set [2] was 0.0463.

On to “MVPGARGGGALARAAGRGLLALLLAVSAPLRLQAEELGDGCGHLVTYQDSGTMTSKNYPGTYPNHTVCEKTITVPKGKRLILRLGDLDIESQTCASDYLLFTSSSDQYGPYCGSMTVPKELLLNTSEVTVRFESGSHISGRGFLLTYASSDHPDLITCLERASHYLKTEYSKFCPAGCRDVAGDISGNMVDGYRDTSLLCKAAIHAGIIADELGGQISVLQRKGISRYEGILANGVLSRDGSLSDKRFLFTSNGCSRSLSFEPDGQIRASSSWQSVNESGDQVHWSPGQARLQDQGPSWASGDSSNNHKPREWLEIDLGEKKKITGIRTTGSTQSNFNFYVKSFVMNFKNNNSKWKTYKGIVNNEEKVFQGNSNFRDPVQNNFIPPIVARYVRVVPQTWHQRIALKVELIGCQITQGNDSLVWRKTSQSTSVSTKKEDETITRPIPSEETSTGINITTVAIPLVLLVVLVFAGMGIFAAFRKKKKKGSPYGSAEAQKTDCWKQIKYPFARHQSAEFTISYDNEKEMTQKLDLITSDMADYQQPLMIGTGTVTRKGSTFRPMDTDAEEAGVSTDAGGHYDCPQRAGRHEYALPLAPPEPEYATPIVERHVLRAHTFSAQSGYRVPGPQPGHKHSLSSGGFSPVAGVGAQDGDYQRPHSAQPADRGYDRPKAVSALATESGHPDSQKPPTHPGTSDSYSAPRDCLTPLNQTAMTALL [DCBLD1]”, for which the “solubility change mitosis (log2)” value in data set [1] was -0.0211. Also, the “solubility in G1/S (log2)” value in data set [2] is 0.0249.

Take “MVRDSMAAAFRPSNRVLLQALQILVYPGVGGSGSVSCRCPLGAKRYLLTDNVVKLKEFQQKKVAVACNLSGTKETYFRNLKKKLTQNKLILKGELITLLHLCESRDHVELAKNVIYRYHAENKNFTLGEYKFGPLFVRLCYELDLEESAVELMKDQHLRGFFSDSTSFNILMDMLFIKGKYKSALQVLIEMKNQDVKFTKDTYVLAFAICYKLNSPESFKICTTLREEALLKGEILSRRASCFAVALALNQNEMAKAVSIFSQIMNPESIACINLNIIIHIQSNMLENLIKTLKNAAEGNLSKFVKRHVFSEEVLAKVREKVKDVPALVAKFDEIYGTLHITGQVTTDSLDAVLCHTPRDRKSHTLLLNKRMVSRRTFQPLSQSLLAE [PTCD2]”: the “solubility change mitosis (log2)” value in data set [1] came out at 0.106. The “solubility in G1/S (log2)” value in data set [2] was -0.0152.

“MVRKLKFHEQKLLKQVDFLNWEVTDHNLHELRVLRRYRLQRREDYTRYNQLSRAVRELARRLRDLPERDQFRVRASAALLDKLYALGLVPTRGSLELCDFVTASSFCRRRLPTVLLKLRMAQHLQAAVAFVEQGHVRVGPDVVTDPAFLVTRSMEDFVTWVDSSKIKRHVLEYNEERDDFDLEA [IMP3]”: the “solubility change mitosis (log2)” value in data set [1] amounted to 1.1. Besides, the “solubility in G1/S (log2)” value in data set [2] was -2.11.
